Assay results as given in PMC7367685, “Reconstitution reveals two paths of force transmission through the kinetochore” (eLife, 2020).
Residue numbers refer to the chain shown, from its start. Names and notes keep the numbering of the source.

Key:
[1] = molecular target: Cse4-NCP: nucleosome core particle of K. lactis 6XHis-H2A, K. lactis 6XHis-H2B, S. cerevisiae Cse4 and K. lactis 6XHis-H4, wrapped in 601 DNA (Kluyveromyces lactis | S. cerevisiae) (UniProt P36012); assay: optical trap bead-microtubule attachment assay (self-assembly and microtubule binding); one His6-tagged subcomplex on anti-His5 polystyrene beads (10 nM on 3.5 pM beads), the other subcomplexes free at 10 nM each; the bead was brought to a single growing microtubule with the laser trap, and a bead whose contact did not persist with the laser off counted as a nonbinder; no external force; BRB80 growth buffer with 1 mM GTP, room temperature; in negative controls one subcomplex was omitted
[2] = molecular target: Cse4-NCP: nucleosome core particle of K. lactis 6XHis-H2A, K. lactis 6XHis-H2B, S. cerevisiae Cse4 and K. lactis 6XHis-H4, wrapped in 601 DNA (Kluyveromyces lactis | S. cerevisiae) (UniProt P36012); assay: optical trap force-ramp rupture assay; same beads and free proteins (10 nM each) as the attachment assay; bead on a growing microtubule tip, 1 pN preload, then a ramp of 0.25 pN/s until detachment; median rupture force of the whole chain; not single-molecule conditions; room temperature
[3] = molecular target: T1, Ndc80c (Ndc80, Nuf2, Spc24-Flag, Spc25) (S. cerevisiae, UniProt P40460 1-691; P33895 1-451; Q04477 1-213; P40014 1-221); assay: optical trap bead-microtubule attachment assay (self-assembly and microtubule binding); one His6-tagged subcomplex on anti-His5 polystyrene beads (10 nM on 3.5 pM beads), the other subcomplexes free at 10 nM each; the bead was brought to a single growing microtubule with the laser trap, and a bead whose contact did not persist with the laser off counted as a nonbinder; no external force; BRB80 growth buffer with 1 …; conditions: both partners purified
T1 construct: Ndc80, S. cerevisiae; Nuf2, S. cerevisiae; Spc24, S. cerevisiae; Spc25, S. cerevisiae; also called Ndc80 complex; pJT048 with Ndc80/Nuf2; copies: + + +
T1 sequence (P40460 whole entry, chain 1 of 4): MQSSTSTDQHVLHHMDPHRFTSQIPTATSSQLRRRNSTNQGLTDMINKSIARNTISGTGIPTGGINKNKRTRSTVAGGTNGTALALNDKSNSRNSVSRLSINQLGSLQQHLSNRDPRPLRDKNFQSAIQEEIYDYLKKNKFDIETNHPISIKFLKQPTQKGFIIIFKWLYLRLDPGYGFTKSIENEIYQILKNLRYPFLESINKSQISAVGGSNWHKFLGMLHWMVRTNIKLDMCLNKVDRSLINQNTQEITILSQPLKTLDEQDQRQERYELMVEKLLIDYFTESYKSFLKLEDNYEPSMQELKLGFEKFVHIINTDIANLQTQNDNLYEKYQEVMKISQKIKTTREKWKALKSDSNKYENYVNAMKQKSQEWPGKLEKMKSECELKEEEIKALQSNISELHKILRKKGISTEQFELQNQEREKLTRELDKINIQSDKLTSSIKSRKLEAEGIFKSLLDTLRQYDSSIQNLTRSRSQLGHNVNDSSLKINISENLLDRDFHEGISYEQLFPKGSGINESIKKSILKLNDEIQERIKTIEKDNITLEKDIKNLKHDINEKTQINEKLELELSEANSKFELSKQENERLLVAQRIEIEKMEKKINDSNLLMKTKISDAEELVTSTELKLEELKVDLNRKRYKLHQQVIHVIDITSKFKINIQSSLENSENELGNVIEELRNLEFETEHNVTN
T1 sequence (P33895 whole entry, chain 2 of 4): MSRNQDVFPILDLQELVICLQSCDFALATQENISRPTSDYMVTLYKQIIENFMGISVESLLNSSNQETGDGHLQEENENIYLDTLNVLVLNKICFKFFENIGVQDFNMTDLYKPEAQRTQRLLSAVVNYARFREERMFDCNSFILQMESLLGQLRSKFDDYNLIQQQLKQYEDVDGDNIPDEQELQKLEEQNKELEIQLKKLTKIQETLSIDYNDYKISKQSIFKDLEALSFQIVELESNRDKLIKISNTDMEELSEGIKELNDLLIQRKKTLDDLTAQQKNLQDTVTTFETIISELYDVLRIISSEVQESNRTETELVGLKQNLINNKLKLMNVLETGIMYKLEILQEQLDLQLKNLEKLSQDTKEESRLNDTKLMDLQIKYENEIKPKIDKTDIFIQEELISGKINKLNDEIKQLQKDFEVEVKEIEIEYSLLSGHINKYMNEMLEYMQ
T1 sequence (Q04477 whole entry, chain 3 of 4): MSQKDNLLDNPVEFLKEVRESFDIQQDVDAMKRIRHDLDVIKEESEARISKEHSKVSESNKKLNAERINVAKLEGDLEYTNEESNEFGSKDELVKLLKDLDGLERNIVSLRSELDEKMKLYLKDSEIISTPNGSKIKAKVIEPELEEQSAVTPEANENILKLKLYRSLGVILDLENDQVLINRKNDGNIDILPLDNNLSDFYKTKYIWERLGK
T1 sequence (P40014 whole entry, chain 4 of 4): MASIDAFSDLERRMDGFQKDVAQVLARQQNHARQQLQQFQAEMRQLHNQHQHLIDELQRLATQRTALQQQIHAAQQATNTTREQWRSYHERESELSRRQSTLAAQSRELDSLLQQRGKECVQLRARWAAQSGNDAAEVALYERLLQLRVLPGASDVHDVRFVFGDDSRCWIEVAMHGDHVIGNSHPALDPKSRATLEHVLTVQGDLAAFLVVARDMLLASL

[4] = molecular target: T1, Ndc80c (Ndc80, Nuf2, Spc24-Flag, Spc25); assay: optical trap force-ramp rupture assay; same beads and free proteins (10 nM each) as the attachment assay; bead on a growing microtubule tip, 1 pN preload, then a ramp of 0.25 pN/s until detachment; median rupture force of the whole chain; not single-molecule conditions; room temperature; conditions: both partners purified

## Mif2-linker-(27-392)MBP (from UniProt P35201 1-549) (natural protein)
[1]
  percent of beads that bound microtubules (Cse4-NCP beads with free Mif2, 2D-MIND and Ndc80c): 24%
[2]
  median rupture force of Cse4-NCP-based chains with both Mif2 and OA free (with 2D-MIND and Ndc80c): 4 pN
  median rupture force of the whole chain Cse4-NCP/Mif2/2D-MIND/Ndc80c: 3.3 pN

B1: MIND complex, wild type (Nsl1, FLAG-Dsn1, Mtw1, Nnf1) (complex, S. cerevisiae)
chain 1: MSQGQSKKLDVTVEQLRSIYHQFHDILEEKTDLHLPKKEYDDDAVRREVQIQLQEFLLSAMTMASKSLEVVNADTVGKTVKQLIMESQEKYMEPFDLDLNEQVRKMYQEWEDETVKVAQLRQTGPAKINEVYNNSKDEYLAQLDGRIGVLQARMMQQQSADHDDSTDDADDHINWEHIKQDYVASLNELYQTQQDLPKVRYNVEKVKRLMDFLEED
chain 2: MSLEPTQTVSGTPPMLHQRTHKQVYPLRMETIPILESDSKATLQSNEPTQKDEEETEYFENKQSVSNLSPDLKFKRHKNKHIQGFPTLGERLDNLQDIKKAKRVENFNSSAPIADDNHSGDATANATANATANATANVNASAMPAPYMPYYYYYHPMNAPTPAMIPYPGSPMHSIMPNSSLQPFYSQPTAAGGPDMTTPQNISSSQQLLPAPQLFPYGSFHQQQLQQPHYIQRTRERKKSIGSQRGRRLSMLASQANGGSTIISPHKDIPEEDFYTVVGNASFGKNLQIRQLFNWCLMRSLHKLELKAKNQEEEGELEHLTKKSKLESTKAETDYVDPKRLAMVIIKEFVDDLKKDHIAIDWEDEEKYEDEDEEKILDNTENYDDTELRQLFQENDDDDDDDDEVDYSEIQRSRRKFSERRKALPKEPKKLLPNSKNVENTKNLSILTSKVNAIKNEVKEWAVTLDTSRPDLEWQELTSFSSQPLEPLSDTEEPDLAIADVETKLETKVDELRYQSHILNSHSLALNEITNSKVNKLNIETMRKISSETDDDHSQVINPQQLLKGLSLSFSKKLDL
chain 3: MSAPTMRSTSILTEHLGYPPISLVDDIINAVNEIMYKCTAAMEKYLLSKSKIGEEDYGEEIKSGVAKLESLLENSVDKNFDKLELYVLRNVLRIPEEYLDANVFRLENQKDLVIVDENELKKSEEKLREKVNDVELAFKKNEMLLKRVTKVKRLLFTIRGFKQKLNELLKCKDDVQLQKILESLKPIDDTMTLLTDSLRKLYVDSESTSSTEEVEALLQRLKTNGKQNNKDFRTRYIDIRTNNVLRKLGLLGDKEDEKQSAKPDARTQAGDIVSIDIEEPQLDLLDDVL
chain 4: MVNSHGIRYIRLKQVFNRALDQSISKLQSWDKVSSCFPQYVNSKQGAINVANCQRQLTEFWTELCQREFKEIMEERNVEQKLNELDELILEAKERYTDRDQDEVNKGPAIDELSSKELVECHLYSQRMHAIHEIDERLAKVNEMNDQLAQELKDLETQVEVEKNEIGKMYDEYLGSHTDQPANVLLVQSLNDMVLELKENY
notes: Nsl1, S. cerevisiae; Dsn1, S. cerevisiae; Mtw1, S. cerevisiae; Nnf1, S. cerevisiae; also called wild-type MIND; pGH46; copies: + + +
[3]
  binding result: binds

B2: 2D-MIND complex (FLAG-Nsl1, S240D, S250D-Dsn1, Mtw1, Nnf1) (complex, S. cerevisiae)
chain 1: B1 chain 1
chain 2: B1 chain 2 with S240D, S250D
chain 3: B1 chain 3
chain 4: B1 chain 4
notes: Nsl1, S. cerevisiae; Dsn1, S. cerevisiae, with two phosphomimetic substitutions; Mtw1, S. cerevisiae; Nnf1, S. cerevisiae; also called phosphomimetic MIND; pGH62; copies: + + +
[4]
  binding result: binds
